Data on 1 molecule can be found in patent publication US20230220008A1 (Bicycle, published 2023).

The target of the test is T1, Recombinant human CD137 (R&D systems), biotinylated (human, UniProt Q07011 24-186, biotinylated with EZ-Link Sulfo-NHS-LC-LC-Biotin).
T1 construct: Bought protein; Captured on a streptavidin chip; also called human CD137 protein; 4-1BB
As to the kind of experiment: SPR (Biacore), biotinylated human CD137 captured on streptavidin chip, peptide as analyte, 25°C; BCY7742 (Monomer 3A), a separate monomer number from BCY8095. The method, then: Biacore experiments were performed to determine kₐ (M⁻¹s⁻¹), kd (s⁻¹), KD (nM) values of monomeric peptides binding to human CD137 protein. […] The protein was desalted to remove uncoupled biotin using spin columns into PBS.
For analysis of peptide binding, a Biacore T200 or a Biacore 3000 instrument was used with a XanTec CMD500D chip. Streptavidin was immobilized on the chip using standard amine-coupling chemistry at 25° C. with HBS-N(10 mM HEPES, 0.15 M NaCl, pH 7.4) as the running buffer. Briefly, the carboxymethyl dextran surface was activated with a 7 min injection of a 1:1 ratio of 0.4 M 1-ethyl-3-(3-dimethylaminopropyl) carbodiimide hydrochloride (EDC)/0.1 M N-hydroxy succinimide (NHS) at a flow rate of 10 μl/min. For capture of streptavidin, the protein was diluted to 0.2 mg/ml in 10 mM sodium acetate (pH 4.5) and captured by injecting 120 μl of onto the activated chip surface. Residual activated groups were blocked with a 7 min injection of 1 M ethanolamine (pH 8.5) and biotinylated CD137 captured to a level of 270-1500 RU. Buffer was changed to PBS/0.05% Tween 20 and a dilution series of the peptides was prepared in this buffer with a final DMSO concentration of 0.5%. The top peptide concentration was 500 nM with 6 further 2-fold or 3-fold dilutions. The SPR analysis was run at 25° C. at a flow rate of 90 μl/min with 60 seconds association and 900 seconds dissociation. […]
Background: SPR reads the build-up and loss of mass on a sensor chip optically.

Starred links: 1 amine or outer side, 2 acyl side, 3 side chain; linkers in the order of their positions; H or OH if unused. Positions of bridges follow the written chain, without caps; N, C: chain ends. Non-standard residues stand in square brackets, D forms with d. No end group written: not given here. TATA = O=C(CC[*:1])N1CN(C(=O)CC[*:2])CN(C(=O)CC[*:3])C1; Nle = CCCC[C@H](N)C(=O)O; PYA = propargyl-acid

What is called Kd is the constant that tells how readily two partners part at equilibrium.

T1 sequence (Q07011 24-186 limits assumed): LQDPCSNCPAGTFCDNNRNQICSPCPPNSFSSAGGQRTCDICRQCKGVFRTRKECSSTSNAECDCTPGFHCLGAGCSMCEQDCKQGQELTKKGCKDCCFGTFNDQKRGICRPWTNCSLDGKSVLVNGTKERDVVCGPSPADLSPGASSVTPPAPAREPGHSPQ

B1: BCY7742 (peptide)
peptide: Ac-ACIK(PYA)EGQYCFADPY[Nle]CA
modifications: linker 2-9-16 via TATA
notes: Bicyclic peptide monomer; also called Monomer 3A
Regarding B1, the dissociation constant Kd stood at 855 nM.
